Measured values reported in US7144731B2, “SCF antibody compositions and methods of using the same” (Amgen Inc., priority 1989, dated 2006).

Tested on: human bone marrow
Assay: Human bone marrow colony assay
Format: cell-based
Summary of the method: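 Ficoll-purified normal human marrow cells were cultured 14 days under low oxygen (7% O2, 10% CO2) in methylcellulose medium containing EPO (20 U/ml). Colonies counted were only those 0.2 mm or larger. Test material was recombinant human SCF (residues 1–162) from COS-1 supernatants, also combined with other factors.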

B1: rrSCF^1-164: recombinant rat SCF^1-164 from E. coli, also used ^125I-labelled (protein)
chain: QEICRNPVTDNVKDITKLVANLPNDYMITLNYVAGMDVLPSHCWLRDMVTHLSVSLTTLLDKFSNISEGLSNYSIIDKLGKIVDDLVACMEENAPKNVKESLKKPETRNFTPEEFFSIFNRSIDAFKDFMVASDTSDCVLSSTLGPEKDSRVSVTKPFMLPPVA
specific activity in proliferation of human bone marrow: specific activity similar to that of human SCF^1-164
